From the supplement of paper PMC9170038

Tested on: MS2 coat protein
Assay: apparent KD of MS2 coat protein; designed switch direction (-1 OFF switch, 1 ON switch): 1; higher = weaker reporter binding
Method in brief: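 SNAP-549-labelled MS2 coat protein was titrated, doubling from 0.7 or 1.5 nM to 3 µM, over designed RNA switches transcribed on Illumina chips by stalled E. coli RNA polymerase. Runs were done without input, with 200 uM small-molecule ligand, or with an oligonucleotide input. Apparent KD is the per-design median over clusters of curve-fitted normalised fluorescence.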

[1] = input ligand: microRNA oligo, concentration not stated
[2] = Eterna round: R95, input ligand: FMN 200 uM
[3] = Eterna round: R95, input ligand: microRNA oligo, concentration not stated
[4] = Eterna round: R95, input ligand: none

| Sequence | apparent KD of MS2 coat protein (input ligand: FMN 200 uM) [nM] | apparent KD of MS2 coat protein [1] [nM] | apparent KD of MS2 coat protein (input ligand: none) [nM] | apparent KD of MS2 coat protein [2] [nM] | apparent KD of MS2 coat protein [3] [nM] | apparent KD of MS2 coat protein [4] [nM] |
| --- | --- | --- | --- | --- | --- | --- |
| GAGUGGUGGAGAGGAUAUACAUUGAUAAUCACUGUAGAAGGUUCUAACAUGAGGAUCACCCAUGUAGGACUAUUCCUGAGAGUU [Parity 53 - Jieux - Same State NG 1] (Eterna round: R96, puzzle: Same State NG 1) | 11.6 | 9.89 | 12 |  |  |  |
| GAGGGACAGACCAACAUGAGGAUCACCCAUGUCCUCGCAGGUCAGGAUAUUAUGAGGAUCACCCAUGAGAAGGGACGGUGAACC (Eterna round: R96, puzzle: Same State NG 3) | 587 | 340 | 491 |  |  |  |
| GGUCCAGCCUGAGCUGGACCACAGCAUGUACAUGAGGAUCACCCAUGUCAUGUACAAGCUUUUUGUUUAACUUAAAA [Sensorship 12 - Jieux - Sensor for hsa-mir-208a] (puzzle: Sensor for hsa-mir-208a) |  |  |  | 211 | 18.2 | 287 |
| AUAUGAGAAGCAGGAUAUGUGGAGAAGAAACAAACAGAAGGGUUUAUGGGACAACAUGAGGAUCACCCAUGUUCUCUGUGAUGA [AK SSNG1-V2-2] (Eterna round: R96, puzzle: Same State NG 1) | 52.5 | 44.3 | 59.2 |  |  |  |
| CACAAUCUAUCUGAGGAUAUCAUGAAAAAAACAUGAGGAUCACCCAUGUGCAGGAAAACUGCAUAUGAGAAGGCAGAUAGAUUGG [salish99_SS2_r3_014] (puzzle: Same State 2) |  |  |  | 29.7 | 577 | 1090 |
| CGGACUCCCUUAGGAUAUGGGAAAGGAAGUGUACCAGAAGGAAGGGUUCCGAUCCUCCAACAUGAGGAUCACCCAUGUAUGAGG [PowerStrip SSNG 1.3] (Eterna round: R96, puzzle: Same State NG 1) | 16.3 | 21.3 | 22.6 |  |  |  |
| UGGCUCAGACGAGGAUAUAUGCGAUCACAUGAGGAUCACCCAUGUCUCGAGCUUCGGCUCGAGGCAUAGAAGGCGUCUGAGCCU [SSNG2/4-A3] (Eterna round: R96, puzzle: Same State NG 2) | 13 | 25.9 | 27.7 |  |  |  |
| AGGUAACAUGAGGAUCACCCAUGUAAGGUGAACGUAGGAUAUCGAAGAGGUAGAGUAGGACGAGAAGGACGAGGAA [JR_SS1_Sub091] (puzzle: Same State 1) |  |  |  | 218 | 239 | 414 |
| CAGCACUGUCGAGAGGAUAUGCGGUGAUGGACAUGAGGAUCACCCAUGUUAGCGACAGCAUCACGGCAGAAGGCUCUGCUGCUGC [Soteed Omei mod 36] (puzzle: Same State 2) |  |  |  |  | 47.7 |  |
| UGGCUCAGACUAGGAUAUAUGCGAUCACAUGAGGAUCACCCAUGUCUCGAGCUUCGGCUCGAGGCAUAGAAGGAGUCUGAGCCU [SSNG2/4-D3] (Eterna round: R96, puzzle: Same State NG 2) | 14.8 | 35.5 | 46.7 |  |  |  |
| GGGCCAGCUUUUGCUGGGCCUUCGCUUGCACAUGAGGAUCACCCAUGUCGUGUACACGCUUCCUGCCCGUCUUGUUU [Photon Torp-19] (puzzle: Sensor for hsa-mir-208a) |  |  |  | 24 | 15.3 | 24.6 |
| UGGUUGGAGAGAGAGGAUAUCCAAUUUUCAACAUGAGGAUCACCCAUGUAGAACGUAGGUAAUUGGGAGAAGGCUCAAGAGACAU [salish99_ss2_r3_100] (puzzle: Same State 2) |  |  |  | 26.9 | 14.5 | 23.5 |
| GGAGCCGGCACUGAGGAUAUUCAUAUUAAAACAUGAGGAUCACCCAUGUAGGCCAGAAGGCCUUGGGAGAAGGCAGGUCGGCUCA [Mat - Same State 2 - Mod of UCT - D59] (puzzle: Same State 2) |  |  |  | 20.5 | 235 | 338 |
| AGUCCAGCGAAAGCUGGACAAAAGCAUGUACAUGAGGAUCACCCAUGUUUAUGUACAAGCUUUUUGCUCGUCUUAAA [JL mod - D95 - 11] (puzzle: Sensor for hsa-mir-208a) |  |  |  | 274 | 14.2 | 300 |
| GGAAUAUGAUGUUACAUGAGGAUCACCCAUGUAGUGAUAACUAAGGAUAUCUGUUAAGAUAACUAAGAGAAGGUAGGAUCAUAA [AK SSNG3-V2-8.3] (Eterna round: R96, puzzle: Same State NG 3) | 49.7 | 44.9 | 55.9 |  |  |  |
| GCUUCACAUGAGGAUCACCCAUGUCGUCGGAGUCGAGGAUAUGGUAACUGUAAACAGUUGCCAGAAGGCGAGGAGC [SS1 - Son of Teenbexe v10] (puzzle: Same State 1) |  |  |  | 23.2 | 24.4 | 26 |

| Sequence | apparent KD of MS2 coat protein (input ligand: FMN 200 uM) [nM] | apparent KD of MS2 coat protein [1] [nM] | apparent KD of MS2 coat protein (input ligand: none) [nM] | apparent KD of MS2 coat protein [2] [nM] | apparent KD of MS2 coat protein [3] [nM] | apparent KD of MS2 coat protein [4] [nM] |
| --- | --- | --- | --- | --- | --- | --- |
| GCCCAGAGUAUAUGGGUACAAGCUUUUUGACAUGAGGAUCACCCAUGUACUCGUCUUAUGUGCAGUCCGUAGACUGC [JL-shm-2.19 Brourd mod] (puzzle: Sensor for hsa-mir-208a) |  |  |  | 18.2 | 27.3 | 17.4 |
| GCUAGGAAAGAAGCCAACAUGAGGAUCACCCAUGUAUGUUGGUAGGAUAUCGUUUGCAAAGCAAACGAGAAGGGCUAACCUAGC [Mat - Same State NG 3 - JL Mod - D73] (Eterna round: R96, puzzle: Same State NG 3) | 202 | 203 | 184 |  |  |  |
| GGUAUUGACACAGGAUAUGCUUACGAAACGUAAGCAGAAGGGUGAACAUGAGGAUCACCCAUGUAGGUACCAGGGCGUGAGCCC [JL SSNG1 1.75] (Eterna round: R96, puzzle: Same State NG 1) | 151 | 694 | 1470 |  |  |  |
| AGUCCAGCCUGAGCUGGACAAAAGCAUGUACAUGAGGAUCACCCAUGUCAUGUACAAGCUUUUUGCUCGUCUUAGAA [Mat - hsa-mir-208a - Mod of JL - D26] (puzzle: Sensor for hsa-mir-208a) |  |  |  | 624 | 16.7 | 756 |
| GGCUAUCGCGUACGAUAGCUUAGGCAUGUACAUGAGGAUCACCCAUGUCAUGUACAGGCUUUUUGCUCGUCUUAUUG [JL-shm-2.36 JL mod] (puzzle: Sensor for hsa-mir-208a) |  |  |  | 179 | 16.7 | 210 |
| UGGCUCAGACGAGGAUAUGAUCAUGGCGCUUCGGCGCAUACAUGAGGAUCACCCAUGUAAAGUGAUCAGAAGGUGUCUGAGCCA [SSNG2/7-B2] (Eterna round: R96, puzzle: Same State NG 2) | 13 | 11.6 | 14.5 |  |  |  |
| GUUACAUGAGGAUCACCCAUGUAUGUGUGGGAGUAAGUGUCUUAGGAUAUCUGUUAUUCAAUUUAAGAGAAGGAAGAUUGUUGU [JMF's solution 38] (Eterna round: R96, puzzle: Same State NG 3) | 97.1 | 49.5 | 76.5 |  |  |  |
| GCUACCAAAUAAGCCAACAUGAGGAUCACCCAUGUAUGUUGGUAGGAUAUCGUAUGCAAAGCAUACGAGAAGGGCUAAGGUAGC [Mat - Same State NG 3 - JL Mod - D80] (Eterna round: R96, puzzle: Same State NG 3) | 57.1 | 40.4 | 52.5 |  |  |  |
| AGAUGUUAAUUAGGAUAUGGACACAUGAGGAUCACCCAUGUAACGUAGAUACGAUGUGGUCAAGUCUAGAAGGGAUAGCUAACA [SameState NG2 #76] (Eterna round: R96, puzzle: Same State NG 2) | 39.9 | 35.2 | 40.3 |  |  |  |
| CCUUAACAUGAGGAUCACCCAUGUAACAAGGAGUAAGGAUAUACAUGGGAAAACAGUCAUGUAGAAGGUACAAAAG [Rexereon] (puzzle: Same State 1) |  |  |  | 15 | 11.8 | 18 |
| UCUUGGUUUUUGCUCGUUUUUUGUGUUGAACAUGAGGAUCACCCAUGUAUUGUACGGUCCGAUUUAAUGAUGGUCCA [JMF 39] (puzzle: Sensor for hsa-mir-208a) |  |  |  | 32.4 | 19.7 | 34.1 |
| GCUCUGGCGGUAGGAUAUCUAGGAUAUGGGAAAGACUAAGUCUGUAGGUCACCUAACCCAGAAGGAGAGAAGGACCCUGUAAGG [pwkr ssNG2 2FMN + F9.23] (Eterna round: R96, puzzle: Same State NG 2) | 21 | 17.2 | 18.6 |  |  |  |
| AUUAUUAAUGCAGGAUAUGAUUAACAUGAGGAUCACCCAUGUGGUGUUGUGAGUAAGGAGAGUGAUCAGAAGGGCAUUUUGUUU [JMF's solution 12] (Eterna round: R96, puzzle: Same State NG 2) | 1130 | 526 | 591 |  |  |  |
| GUCCGGCUGCCACAGGAUAUACGUGGAUCGACAUGAGGAUCACCCAUGUAUAUCCUAAUAAUUGCGUAGAAGGGUGGUCAGCCGG [Dionbe] (puzzle: Same State 2) |  |  |  | 78.3 | 540 | 1180 |
| UUUCCAUAGAUAGGAUAUCAGUUUACAUGAGGAUCACCCAUGUUCUCUUUGGUUUUAAUUUUUUCUGAGAAGGAUCUUGAUGAA [JR_SSNG2_Sub001] (Eterna round: R96, puzzle: Same State NG 2) | 20.6 | 17.7 | 25.1 |  |  |  |
